In PMC11500471 (Protein Science : A Publication of the Protein Society, 2024):
Residue numbers refer to the chain shown, from its start. In names and notes the source's numbering stands. Several values for one entry are separate records, joined by “and”; a condition that tells them apart may be missing. Equal entries are not always repeated. Where two headings read alike, the source gives them in different places. Each block holds one molecule with its values, some of them ahead of it.

How the values were obtained:
[1] = target: GRPEL2, human, recombinant, without mitochondrial targeting sequence, His tag kept (human) (UniProt Q8TAA5); experiment: SEC-MALS
[2] = target: GRPEL1, human, recombinant, without mitochondrial targeting sequence, His tag kept (human) (UniProt Q9HAV7); experiment: SEC-MALS
[3] = target: mitochondrial HSP70 (mtHSP70), human, recombinant, His-tagged (human) (UniProt P38646); experiment: SEC-MALS
[4] = target: mitochondrial HSP70 (mtHSP70), human, recombinant, His-tagged (human) (UniProt P38646); experiment: MST
[5] = target: mitochondrial HSP70 (mtHSP70), human, recombinant, His-tagged (human) (UniProt P38646); experiment: MST; remark: listed apart in the source
[6] = target: mitochondrial HSP70 (mtHSP70), human, recombinant, His-tagged (human) (UniProt P38646); experiment: MST; remark: listed apart in the source
SEC-MALS = target: the molecule itself; experiment: SEC-MALS

- stoichiometry N [1]: 2 and 4
Molecule: GRPEL2, human, recombinant, without mitochondrial targeting sequence, His tag kept (from UniProt Q8TAA5 33-225) (natural protein)

- stoichiometry N [2]: 2 and 4
- stoichiometry N (GRPEL1 per mtHSP70 (2:1 complex)) [3]: 2
- stoichiometry N (GRPEL1 per mtHSP70 (2:2 complex)) [3]: 1
Molecule: GRPEL1, human, recombinant, without mitochondrial targeting sequence, His tag kept (from UniProt Q9HAV7 28-217) (natural protein)

- Kd [4]: 942 nM
- Kd [5]: 373 nM
- Kd [6]: 152 nM
B1: GRPEL2, human, recombinant, without mitochondrial targeting sequence, His tag cleaved at the TEV site (natural protein)
chain: STATQRTAGEDCRSEDPPDELGPPLAERALRVKAVKLEKEVQDLTVRYQRAIADCENIRRRTQRCVEDAKIFGIQSFCKDLVEVADILEKTTECISEESEPEDQKLTLEKVFRGLLLLEAKLKSVFAKHGLEKLTPIGDKYDPHEHELICHVPAGVGVQPGTVALVRQDGYKLHGRTIRLARVEVAVESQRRL

- Kd [4]: 204 nM
- Kd [5]: 203 nM
B2: GRPEL2-C87A, human, recombinant, without mitochondrial targeting sequence, His tag kept (natural protein, UniProt Q8TAA5 33-225, looked up)
chain: B1 chain with C55A
- stoichiometry N (SEC-MALS): 2 and 4

- Kd [5]: 457 nM
B3: GRPEL2-C97A, human, recombinant, without mitochondrial targeting sequence, His tag kept (natural protein, UniProt Q8TAA5 33-225, looked up)
chain: B1 chain with C65A
- stoichiometry N (SEC-MALS): 2 and 4
